Reference: PMC4227133

Target: Gal4 Cyclin T1s with a mutated Y175

B1: Hexim1, endogenous in HEK293 cells, O94992 1-359 (natural protein)
chain: MAEPFLSEYQHQPQTSNCTGAAAVQEELNPERPPGAEERVPEEDSRWQSRAFPQLGGRPGPEGEGSLESQPPPLQTQACPESSCLREGEKGQNGDDSSAGGDFPPPAEVEPTPEAELLAQPCHDSEASKLGAPAAGGEEEWGQQQRQLGKKKHRRRPSKKKRHWKPYYKLTWEEKKKFDEKQSLRASRIRAEMFAKGQPVAPYNTTQFLMDDHDQEEPDLKTGLYSKRAAAKSDDTSDDDFMEEGGEEDGGSDGMGGDGSEFLQRDFSETYERYHTESLQNMSKQELIKEYLELEKCLSRMEDENNRLRLESKRLGGDDARVRELELELDRLRAENLQLLTENELHRQQERAPLSKFGD
In the case of B1, the other is reported as 2 fold.
